Measured values from article PMC8100514.

Target: β-tubulin, endogenous in HeLa cells (human (endogenous in HeLa)) (UniProt P07437)
Test: native gel or EMSA; soluble native extracts of HeLa cells treated with 5 uM colchicine for 60 min (30 ug) on 6% non-denaturing PAGE, western blot with anti-TBCA; level of the complex relative to control cells (100%)

Sequence of UniProt P07437 (P07437 whole entry): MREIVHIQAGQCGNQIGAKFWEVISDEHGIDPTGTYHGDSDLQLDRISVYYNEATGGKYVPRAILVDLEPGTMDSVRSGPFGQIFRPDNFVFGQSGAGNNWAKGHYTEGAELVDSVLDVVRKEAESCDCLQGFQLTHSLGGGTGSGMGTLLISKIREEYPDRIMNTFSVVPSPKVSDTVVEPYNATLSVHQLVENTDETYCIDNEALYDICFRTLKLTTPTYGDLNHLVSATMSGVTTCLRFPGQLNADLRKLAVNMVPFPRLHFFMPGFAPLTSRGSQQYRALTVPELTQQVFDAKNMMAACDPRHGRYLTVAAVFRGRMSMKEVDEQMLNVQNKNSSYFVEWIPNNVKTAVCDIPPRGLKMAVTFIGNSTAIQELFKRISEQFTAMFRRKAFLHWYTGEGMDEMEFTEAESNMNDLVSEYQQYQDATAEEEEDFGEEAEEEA

level of the TBCA/β-tubulin complex, percent of control cells: 18%
B1: tubulin cofactor A (TBCA), endogenous in HeLa cells (natural protein)
chain: MADPRVRQIKIKTGVVKRLVKEKVMYEKEAKQQEEKIEKMRAEDGENYDIKKQAEILQESRMMIPDCQRRLEAAYLDLQRILENEKDLEEAEEYKEARLVLDSVKLEA
